{"source": "paper PMC4768246", "about": "“A novel cold-adapted and highly salt-tolerant esterase from Alkalibacterium sp. SL3 from the sediment of a soda lake” (Scientific Reports, 2016)", "substrate": "CC(=O)Oc1ccc([N+](=O)[O-])cc1", "test": "purified protein", "type": "biochemical, Alkalibacterium sp. SL3", "conditions": "50 mM Tris-HCl pH 9.0, 30 °C, 5 min, 0.05–5 mM substrate", "data": [{"protein": "EstSL3 (rEstSL3) (Alkalibacterium sp. SL3) (protein, His6-tagged from pET-28a(+) (NcoI-HindIII), E. coli BL21(DE3), Ni-NTA; internal peptides LTVLNRGIGGDSLKDLK, TDARVILMESFVLPYPKR, VGWRNDLDK; catalytic Ser15, Asp189, His192) MKINKNDTLLFIGDSITDVGRDRMDGEDLGKGFPLMVASHLQSRYPAKRLTVLNRGIGGDSLKDLKRRWEDDCLITNPDIVTLLIGVNDTWRNQNDGVELTDEELDEFESDYRFLLKSLHQRTDARVILMESFVLPYPKRRVGWRNDLDKRIQIVRKMARDYQTELIPLDGLLNAAGIRDGFSYYTGDDGVHPTVAGHGLIANSWLKAVDE", "values": [{"measurement": "Km", "value": "150 ± 10", "unit": "µM"}, {"measurement": "kcat", "value": 307.69, "unit": "s⁻¹"}]}]}
